Laboratory results: patent publication US20250057930A1, “ANAPLASTIC LYMPHOMA KINASE (ALK) CANCER VACCINES AND METHODS OF USE THEREOF” (The Children's Medical Center Corporation, priority 2022, published 2025)

Tested on: H2-Dd expression
Experiment: H2-Dd surface expression on MHC-I^low lung tumor escaper cell lines (flow cytometry)
Format: cell-based, mouse
Details: tumor cells stimulated in vitro with IFN-γ
Method: To uncover the mechanisms that would explain this resistance to treatment, ex vivo escaped tumors were isolated from each treatment group. […] To understand whether the observed H2-Dd downregulation was sufficient to impair tumor rejection, tumor cells with high H2-Dd isolated from untreated mice or tumor cells with low H2-Dd isolated from ALK vaccinated mice and treated with ICI were injected. Treatment with ICI induced rejection of tumors with high H2-Dd expression (FIGS. 6D-6E), consistent with previous experiments (FIG. 3E), but not of escaped tumors with low H2-Dd expression (FIGS. 6F-6G). Finally, it was asked whether H2-Dd expression could be restored by Stimulator of IFN genes (STING) signaling that can increase MHC-I expression in other models of lung cancer.
Allophycocyanin (APC)-conjugates H-2D^d-[…] (SEQ ID NO: 22) Dextramer reagents were obtained from Immudex (Immudex, Denmark). […] After washing step, cells were ready to be acquired. When referred, also PD-1 (clone RMP1-30; BV421-PD-1, BD Pharmingen™, USA) expression was evaluated together with dextramer staining, being added together with FITC-CD8. H2-Dd MHC-I expression was measured on relapsed tumors after treatment. […] All cells were acquired in a BD Celesta flow cytometer (BD Bioscience, USA) and analyzed by using the FlowJo software (FlowJo LCC, USA). […]

B1: IFN-γ: Recombinant murine IFN-γ (R&D Systems) (protein, UniProt P01580 23-155, looked up)
Interferon gamma: HGTVIESLESLNNYFNSSGIDVEEKSLFLDIWRNWQKDGDMKILQSQIISFYLRLFEVLKDNQAISNNISVIESHLITTFFSNSKAKKDAFMSIAKFEVNNPQVQRQAFNELIRVVHQLLPESSLRKRKRSRC
H2-Dd expression: H2-Dd expression was restored
